# Laboratory results as given in article PMC6006217.
# Legend:
# [1] = target: BGB-A317/IgG4_(S228P) (human); test: SPR; Biacore, human PD-1/His immobilised on a CM5 chip; the antibody captured on the PD-1/His surface; FcγRI injected over it
# [2] = target: FcγRI on HEK293/FcγRI cells (human) (UniProt P12314)
# Chain of BGB-A317/IgG4_(S228P) (human) (heavy, as listed by the source, chain 1 of 2): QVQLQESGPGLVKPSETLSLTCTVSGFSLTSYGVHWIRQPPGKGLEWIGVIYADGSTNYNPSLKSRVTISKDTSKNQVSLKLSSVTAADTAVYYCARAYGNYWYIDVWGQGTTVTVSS
# Chain of BGB-A317/IgG4_(S228P) (human) (light, as listed by the source, chain 2 of 2): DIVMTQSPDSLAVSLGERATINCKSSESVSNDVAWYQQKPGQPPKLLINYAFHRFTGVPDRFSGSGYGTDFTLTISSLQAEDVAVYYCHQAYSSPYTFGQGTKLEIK
Ka [1] [M⁻¹],Kd [1] [nM],koff [1] [s⁻¹],kon [1] [M⁻¹ s⁻¹],"IL-10 gene transcription (real-time PCR) in M2 macrophages seeded on PD-1-coated plates in the presence of the antibody, against huIgG baseline [2] [fold]",Substance
3.57e+08,2.8,0.00199,712000,–,human FcγRI (from UniProt P12314 16-292) (receptor)
–,–,–,–,< 5,BGB-A317/IgG4_(S228P) (antibody)
